Test results as given in US20190367631A1 (Regeneron, published 2019).
Numbering of substitutions follows the chain as printed. In names and notes the source's numbering stands. Like-named read-outs stand apart in the source and are kept apart here.

T1: human MSR1 extracellular domain expressed with a N-terminal nonahistidine tag (human, UniProt P21757 77-451)
T1 construct: extracellular domain; also called His9-hMSR1; His-hMSR1
T1 sequence: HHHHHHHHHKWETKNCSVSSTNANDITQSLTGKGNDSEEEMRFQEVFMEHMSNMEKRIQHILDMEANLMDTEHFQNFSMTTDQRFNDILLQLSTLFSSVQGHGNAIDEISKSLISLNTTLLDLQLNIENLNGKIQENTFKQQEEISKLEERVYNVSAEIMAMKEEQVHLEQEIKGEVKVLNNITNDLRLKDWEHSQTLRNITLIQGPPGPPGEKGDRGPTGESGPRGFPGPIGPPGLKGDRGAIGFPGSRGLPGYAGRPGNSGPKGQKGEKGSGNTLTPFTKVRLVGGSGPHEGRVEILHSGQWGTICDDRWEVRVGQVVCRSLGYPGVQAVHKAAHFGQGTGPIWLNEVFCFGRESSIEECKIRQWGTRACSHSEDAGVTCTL

T2: full length monkey MSR1 on HEK293.mfMSR1 cells (Macaca fascicularis, UniProt A0A2K5UWE2 1-451)
T2 construct: whole, on cells
T2 sequence: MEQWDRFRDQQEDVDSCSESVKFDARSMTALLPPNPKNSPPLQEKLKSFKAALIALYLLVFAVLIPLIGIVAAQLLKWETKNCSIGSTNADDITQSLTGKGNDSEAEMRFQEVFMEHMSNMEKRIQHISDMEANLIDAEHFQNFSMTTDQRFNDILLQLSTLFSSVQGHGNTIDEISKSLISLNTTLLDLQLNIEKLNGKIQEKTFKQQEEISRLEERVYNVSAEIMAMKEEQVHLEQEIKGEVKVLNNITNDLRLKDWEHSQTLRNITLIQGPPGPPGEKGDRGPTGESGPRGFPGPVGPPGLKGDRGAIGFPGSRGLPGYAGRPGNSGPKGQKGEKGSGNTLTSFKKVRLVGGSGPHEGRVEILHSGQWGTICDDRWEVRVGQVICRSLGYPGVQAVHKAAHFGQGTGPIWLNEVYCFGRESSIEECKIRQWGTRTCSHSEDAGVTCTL

T3: full length human MSR1 with a C-terminal Myc tag, on HEK293.Myc.hMSR1 cells (human, UniProt P21757 1-451)
T3 construct: whole, on cells; stably expressed on engineered HEK293 cells; not shown: C-terminal Myc tag
T3 sequence (looked up): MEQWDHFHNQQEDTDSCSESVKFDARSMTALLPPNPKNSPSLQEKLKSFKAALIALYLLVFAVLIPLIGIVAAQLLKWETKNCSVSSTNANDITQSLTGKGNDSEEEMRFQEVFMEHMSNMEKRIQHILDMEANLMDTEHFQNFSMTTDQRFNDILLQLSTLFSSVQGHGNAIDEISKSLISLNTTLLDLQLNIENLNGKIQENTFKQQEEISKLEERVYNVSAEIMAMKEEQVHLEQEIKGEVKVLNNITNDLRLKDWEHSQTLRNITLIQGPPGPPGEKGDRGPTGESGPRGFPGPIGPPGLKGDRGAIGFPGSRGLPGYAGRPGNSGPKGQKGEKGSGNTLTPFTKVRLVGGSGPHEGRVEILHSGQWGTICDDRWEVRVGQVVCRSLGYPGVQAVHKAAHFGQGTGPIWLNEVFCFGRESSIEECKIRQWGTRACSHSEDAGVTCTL

T4: human MSR1 extracellular domain expressed with a N-terminal nonahistidine tag (His9-hMSR1); R&D Systems, Cat … (human, UniProt P21757 77-451)
T4 construct: extracellular domain; Bought reagent; also called His-hMSR1; 9xHis-hMSR1
T4 sequence: T1 sequence

B1: H2aM21235N (antibody, mouse IgG2a, V domains shown)
VH: EVQLVESGGGLVQPGGSLRLSCAASGFTFSDHYMDWVRQAPGKGLEWVGRTRNKANSYTTEYAASVSGRFTISRDDSKNSLYLQMNSLKTEDTAVYYCTRAGIIGTLFDYWGQGTLVTVSS
VL: DIQMTQSPSSLSASVGDRVTITCRASQIIGRYLNWFQQKPGKVPKLLIYAASSLQRGVPSRFSGSGSGTDFTLTISSLQPEDFATYYCQQSYNTPPITFGQGTRLEIKR
notes: Human variable domains with mouse IgG2a Fc
B2: H2aM21229N (antibody, mouse IgG2a, V domains shown)
VH: EVQLVESGGGLVKPGGSLRLSCAASGFTFSRYSMNWVRQAPGKGLEWVSSISSSSSYIYYGDTVKGRFTISRDNAKKSLYLQMNSLRAEDTAVYYCVRDRGQLVLYFDYWGQGTLVTVSS
VL: DIQMTQSPASLSTSIRDRVTITCRASLSISSFLNWFQQRPGKAPKLLIYVASNLQSGVPSRFSDSGSGTDFTLTISSLQPEDFATYYCQQNYSTPPITFGQGTRLEIK
notes: as for B1
B3: H2aM21228N (antibody, mouse IgG2a, V domains shown)
VH: VQLVESGGGLVQPGGSLRLSCAASGFTFSDHYMDWVRQAPGKGLEWVGRTRNKANSHTTEYAASVSGRFTISRDDSKNSLYLQMNSLKTEDTAVYYCTRAGIIGTLFDYWGQGTLVTVSS
VL: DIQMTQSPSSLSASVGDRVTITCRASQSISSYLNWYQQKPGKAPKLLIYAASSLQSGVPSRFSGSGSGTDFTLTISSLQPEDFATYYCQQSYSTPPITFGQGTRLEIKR
notes: as for B1
B4: H1xH29282P2 (antibody, V domains shown)
VH: EVQLVESGGGLVQPGGSLRLSCAASGFTFSTYAMSWVRQAPGKGLEWVSTISGRSDITYFADSVKGRFTVSRDNSKTTLYLQMNSLRAEDTAVYYCATDDDLPLDYWGQGTLVTVSS
VL: not shown
B5: H1H21234N-N297Q (antibody, V domains shown)
VH: QVQLQESGPGLVKPSETLSLTCTVTGGSISRNYWSWIRQPPGKGLEWIGYIYYSGSIDYNPSLKSRVTISVDTSKNQFSLKLSSMTAADTAVYYCARDRWNWKYGMDVWGQGTTVIVSS
VL: EIVLTQSPGTLSLSPGERATLSCRASQTVRNNYLAWYHQKPGQAPRLLIYGASSRATGIPDRFSGSGSGTDFTLTISRLEPEDFTVYYCHQYGNSPWTFGQGTKMEIKR
notes: Human IgG1 Fc with N297Q (EU numbering)
B6: H1H21234N-N297Q-LP3 (antibody, human IgG1, V domains shown)
VH: B5 VH
VL: B5 VL
modifications: steroid linker-payload LP3 clicked to azido-PEG3-amine on Q295 and Q297 (EU) of the heavy chain constant region
notes: antibody-drug conjugate; human IgG1 Fc with N297Q (EU); also called H1H21234N-LP3
B7: H1H21234N-N297Q (antibody, human IgG1, V domains shown)
VH: B5 VH
VL: B5 VL
notes: human IgG1 Fc with N297Q (EU); also called H1H21234-N297Q
B8: H1H21234N (antibody, V domains shown)
VH: B5 VH
VL: B5 VL
notes: Original human IgG1 Fc
B9: H1H21234N-N297Q-LP13 (antibody, human IgG1, V domains shown)
VH: B5 VH
VL: B5 VL
modifications: steroid linker-payload LP13 clicked to azido-PEG3-amine on Q295 and Q297 (EU) of the heavy chain constant region
notes: antibody-drug conjugate; human IgG1 Fc with N297Q (EU); also called H1H21234N-LP13
B10: H2aM25695N (antibody, mouse IgG2a, V domains shown)
VH: B5 VH with D58N, T73M, S83N, M85V
VL: B5 VL with N32S, T85A, H90Q, N94S, P96Y
notes: as for B1

What was measured:
[1] = target: T1, human MSR1 extracellular domain …; assay: competition ELISA, plate-coated His9-hMSR1; 100 nM antibody, competitor ligand Ac-LDL
Method: (§1) Buffer alone was also added to wells on each coat. […] This assay was conducted in four different assay runs.
(§2) Data analysis was performed using a sigmoidal dose-response model within Prism™ software (GraphPad).

[2] = target: T1, human MSR1 extracellular domain …; assay: competition ELISA, plate-coated His9-hMSR1; 500 nM antibody, competitor ligand 5 nM Ox-LDL
Method: as §1, §2

[3] = target: T1, human MSR1 extracellular domain …; assay: competition ELISA, plate-coated His9-hMSR1; 300 nM antibody, competitor ligand biot-AGE-BSA
Method: as §1, §2

[4] = target: T2, full length monkey MSR1 on …; assay: ECL cell binding, HEK293.mfMSR1 cells, 11 nM
Method: (§3) All cells were washed once with 1×PBS with Ca²⁺/Mg²⁺ and counted with a Cellometer™ Auto T4 cell counter (Nexcelom Bioscience). Approximately 1.0×10⁴ cells were seeded separately onto 96-well carbon electrode plates [MULTI-ARRAY high bind plate, Meso Scale Diagnostics] and incubated for 1 hour at 37° C. Non-specific binding sites were then blocked by 2% BSA (w/v) in PBS with Ca²⁺/Mg²⁺ for 1 hour at room temperature. THP-1 cells were pre-incubated for 0.5 hours at room temperature in sample dilution buffer with: 1) 1 mg/mL Fc receptor block reagents to block Fc gamma receptors on THP-1 cell surface [whole molecule human IgG (Jackson Immunoresearch, Cat #009-000-003) for wells being tested with anti-MSR1-mFc antibodies or 2) whole molecule mlgG (Jackson Immunoresearch, Cat #015-000-003) for wells being tested with anti-MSR1-hFc antibodies. Antibody binding on HEK293.Myc.hMSR1, HEK293.mfMSR1 and HEK293 cells was tested without Fc receptor block reagents. […] Plates were then washed to remove unbound antibodies an AquaMax2000 plate washer with a cell washing head (MDS Analytical Technologies). […] Plates were washed and developed with Read Buffer (Meso Scale Diagnostics, Cat # R92TD-2) according to manufacturer's recommended procedure and luminescent signals were recorded with a SECTOR Imager 600 (Meso Scale Diagnostics). Luminescence intensity, measured in relative light units (RLU), was recorded to indicate the binding intensity of each antibody at the range of concentrations.

[5] = target: T3, full length human MSR1 with a …; assay: ECL cell binding, HEK293.Myc.hMSR1 cells, 11 nM
Method: as §3

[6] = target: T2, full length monkey MSR1 on …; assay: ECL cell binding, HEK293.mfMSR1 cells; section head of Table 10
[7] = target: T1, human MSR1 extracellular domain …; assay: competition ELISA, plate-coated His9-hMSR1; 500 nM antibody, competitor ligand 10 nM Ox-LDL
Method: as §1, §2

[8] = target: T4, human MSR1 extracellular domain …; assay: SPR Biacore T200, 25 C, antibody captured by anti-human Fc, His9-hMSR1 injected
Method: (§4) All binding studies were performed in 10 mM HEPES, 300 mM NaCl, 3 mM EDTA, and 0.05% v/v Surfactant Tween-20, pH 7.4 (HBS-ET) running buffer at 25° C.
(§5) The association rate (kₐ) and dissociation rate (kd) were determined by fitting the real-time binding sensorgrams to a 1:1 binding model with mass transport limitation using Scrubber 2.0c curve-fitting software. Binding dissociation equilibrium constant (KD) and dissociative half-life (t½) were calculated from the kinetic rates as:

[9] = target: T4, human MSR1 extracellular domain …; assay: SPR Biacore T200, 25 C, antibody captured by anti-human Fc, His9-hMSR1 injected; no dissociation seen, kd fixed at 1.00E-05
Method: as §4, §5

[10] = target: T4, human MSR1 extracellular domain …; assay: SPR Biacore T200, 25 C, antibody captured by anti-human Fc, His9-hMSR1 injected; remark: listed apart in the source
Method: as §4, §5

[11] = target: T4, human MSR1 extracellular domain …; assay: SPR Biacore T200, 25 C, antibody captured by anti-human Fc, His9-hMSR1 injected; no dissociation seen, kd fixed at 1.00E-05; remark: listed apart in the source
Method: as §4, §5

| Binder | % Blocking [1] [%] | % Blocking [2] [%] | % Blocking [3] [%] | % Blocking [7] [%] | kon [8] [M⁻¹ s⁻¹] | Kd [9] [nM] | koff [9] [s⁻¹] | t½ [9] [h] | other results |
| --- | --- | --- | --- | --- | --- | --- | --- | --- | --- |
| B1 | 24 | -4 | -24 | – | – | – | – | – | – |
| B2 | -11 | 38 | 3 | – | – | – | – | – | – |
| B3 | -32 | 41 | -1 | – | – | – | – | – | – |
| B4 | – | – | – | – | – | – | – | – | ratio of binding signal (RLU) to isotype control [4]: 1 fold; ratio of binding signal (RLU) to isotype control [5]: 9 fold; binding result [6]: no binding (tested: 11 nM) |
| B5 | 75 | – | -27 | 49 | – | – | – | – | – |
| B6 | – | – | – | – | 417000 | ≤ 0.024 | ≤ 1e-05 | ≥ 19.3 | – |
| B7 | – | – | – | – | 300000 | ≤ 0.0333 | ≤ 1e-05 | ≥ 19.3 | kon [10]: 220000 M⁻¹ s⁻¹; Kd [11]: ≤ 0.0454 nM; koff [11]: ≤ 1e-05 s⁻¹; t½ [11]: ≥ 19.3 h |
| B8 | 70 | – | 21 | 98 | – | – | – | – | – |
| B9 | – | – | – | – | 400000 | ≤ 0.025 | ≤ 1e-05 | ≥ 19.3 | – |
| B10 | 65 | – | 16 | 96 | – | – | – | – | – |
